IntAct's records for PubMed 16762039

B1: Hypermethylated in cancer 1 protein (Homo sapiens), Q14526 (parent)
chain: MTFPEADILLKSGECAGQTMLDTMEAPGHSRQLLLQLNNQRTKGFLCDVIIVVQNALFRAHKNVLAASSAYLKSLVVHDNLLNLDHDMVSPAVFRLVLDFIYTGRLADGAEAAAAAAVAPGAEPSLGAVLAAASYLQIPDLVALCKKRLKRHGKYCHLRGGGGGGGGYAPYGRPGRGLRAATPVIQACYPSPVGPPPPPAAEPPSGPEAAVNTHCAELYASGPGPAAALCASERRCSPLCGLDLSKKSPPGSAAPERPLAERELPPRPDSPPSAGPAAYKEPPLALPSLPPLPFQKLEEAAPPSDPFRGGSGSPGPEPPGRPDGPSLLYRWMKHEPGLGSYGDELGRERGSPSERCEERGGDAAVSPGGPPLGLAPPPRYPGSLDGPGAGGDGDDYKSSSEETGSSEDPSPPGGHLEGYPCPHLAYGEPESFGDNLYVCIPCGKGFPSSEQLNAHVEAHVEEEEALYGRAEAAEVAAGAAGLGPPFGGGGDKVAGAPGGLGELLRPYRCASCDKSYKDPATLRQHEKTHWLTRPYPCTICGKKFTQRGTMTRHMRSHLGLKPFACDACGMRFTRQYRLTEHMRIHSGEKPYECQVCGGKFAQQRNLISHMKMHAVGGAAGAAGALAGLGGLPGVPGPDGKGKLDFPEGVFAVARLTAEQLSLKQQDKAAAAELLAQTTHFLHDPKVALESLYPLAKFTAELGLSPDKAAEVLSQGAHLAAGPDGRTIDRFSPT

Variants of: B1
Conditions: with ctbp2_mouse Ctbp2, P56546
Sequence of ctbp2_mouse Ctbp2, P56546 (P56546 whole entry): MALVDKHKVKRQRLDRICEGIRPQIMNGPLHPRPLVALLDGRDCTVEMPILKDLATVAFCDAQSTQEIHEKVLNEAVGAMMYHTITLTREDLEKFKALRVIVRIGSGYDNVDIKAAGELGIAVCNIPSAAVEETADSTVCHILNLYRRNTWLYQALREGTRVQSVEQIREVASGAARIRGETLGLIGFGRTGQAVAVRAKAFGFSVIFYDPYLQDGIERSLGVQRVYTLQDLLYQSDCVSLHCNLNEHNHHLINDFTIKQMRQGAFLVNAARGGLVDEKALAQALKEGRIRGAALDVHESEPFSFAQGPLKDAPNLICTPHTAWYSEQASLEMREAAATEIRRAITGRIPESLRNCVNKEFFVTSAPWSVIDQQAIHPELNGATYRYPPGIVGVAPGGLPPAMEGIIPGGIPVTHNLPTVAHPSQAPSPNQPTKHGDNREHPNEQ

Variant | effect of a mutation on the interaction
L244A | disrupting interaction

Variants of: B1
Conditions: with ctbp1_mouse Ctbp1, O88712

Variant | effect of a mutation on the interaction
L244A | disrupting interaction
